Here are results for 28 molecules from patent publication US20170355775A1 (ELANCO TIERGESUNDHEIT, published 2017).

B1: chimeric anti-canine CD20 antibody 1E4-cIgGB (antibody, V domains shown)
VH: EVQLVESGGGLVKPGGSLKLSCAASGFTFSDYGMLWVRQAPEKGLEWIAYISSGSSTIYYADRVKGRFTISRDNAKNTLFLQMTSLRSEDTAMYYCSTGTFAYWGQGTPVTVSS
VL: DVVMTQNPLSLPVSLGDQASISCRSSQSLIYNNGNTYLHWYRQKPGQSPKLLIYKVSNRFSGVPDRFSGSGSGTDFTLKISRVEAEDLGVYFCSQSTHVPFTFGSGTKLEIKR
notes: also called unmodified (WT) 1E4-cIgGB; 1E4-cIGB
B2: 1E4-cIgGB with G34 to R substitution in VL (antibody, V domains shown)
VH: B1 VH
VL: B1 VL with G34R
notes: Whole antibody (heavy plus light chains) made 'using the above procedures'
B3: 1E4-cIgGB with N33 to P substitution in VL (antibody, V domains shown)
VH: B1 VH
VL: B1 VL with N33P
notes: as for B2
B4: 1E4-cIgGB with G34 to E substitution in VL (antibody, V domains shown)
VH: B1 VH
VL: B1 VL with G34E
notes: as for B2
B5: 1E4-cIgGB with N33 to H substitution in VL (antibody, V domains shown)
VH: B1 VH
VL: B1 VL with N33H
notes: as for B2
B6: 1E4-cIgGB with G34 to Y substitution in VL (antibody, V domains shown)
VH: B1 VH
VL: B1 VL with G34Y
notes: as for B2
B7: 1E4-cIgGB with G34 to I substitution in VL (antibody, V domains shown)
VH: B1 VH
VL: B1 VL with G34I
notes: as for B2
B8: 1E4-cIgGB with G34 to F substitution in VL (antibody, V domains shown)
VH: B1 VH
VL: B1 VL with G34F
notes: as for B2
B9: 1E4-cIgGB with G34 to H substitution in VL (antibody, V domains shown)
VH: B1 VH
VL: B1 VL with G34H
notes: as for B2
B10: 1E4-cIgGB with N33 to E substitution in VL (antibody, V domains shown)
VH: B1 VH
VL: B1 VL with N33E
notes: as for B2
B11: 1E4-cIgGB with N33 to L substitution in VL (antibody, V domains shown)
VH: B1 VH
VL: B1 VL with N33L
notes: as for B2
B12: 1E4-cIgGB with N33 to R substitution in VL (antibody, V domains shown)
VH: B1 VH
VL: B1 VL with N33R
notes: as for B2
B13: 1E4-cIgGB with N33 to T substitution in VL (antibody, V domains shown)
VH: B1 VH
VL: B1 VL with N33T
notes: as for B2
B14: 1E4-cIgGB with N33 to V substitution in VL (antibody, V domains shown)
VH: B1 VH
VL: B1 VL with N33V
notes: as for B2
B15: 1E4-cIgGB with N33 to Y substitution in VL (antibody, V domains shown)
VH: B1 VH
VL: B1 VL with N33Y
notes: as for B2
B16: 1E4-cIgGB with N33 to F substitution in VL (antibody, V domains shown)
VH: B1 VH
VL: B1 VL with N33F
notes: as for B2
B17: 1E4-cIgGB with G34 to V substitution in VL (antibody, V domains shown)
VH: B1 VH
VL: B1 VL with G34V
notes: as for B2
B18: 1E4-cIgGB with N33 to I substitution in VL (antibody, V domains shown)
VH: B1 VH
VL: B1 VL with N33I
notes: as for B2
B19: 1E4-cIgGB with G34 to L substitution in VL (antibody, V domains shown)
VH: B1 VH
VL: B1 VL with G34L
notes: as for B2
B20: 1E4-cIgGB with G34 to P substitution in VL (antibody, V domains shown)
VH: B1 VH
VL: B1 VL with G34P
notes: as for B2
B21: 1E4-cIgGB with N33 to Q substitution in VL (antibody, V domains shown)
VH: B1 VH
VL: B1 VL with N33Q
notes: as for B2
B22: 1E4-cIgGB with N33 to A substitution in VL (antibody, V domains shown)
VH: B1 VH
VL: B1 VL with N33A
notes: as for B2
B23: 1E4-cIgGB with G34 to Q substitution in VL (antibody, V domains shown)
VH: B1 VH
VL: B1 VL with G34Q
notes: also called G34Q
B24: 1E4-cIgGB with N33 to K substitution in VL (antibody, V domains shown)
VH: B1 VH
VL: B1 VL with N33K
notes: also called N33K
B25: 1E4-cIgGB with G34 to K substitution in VL (antibody, V domains shown)
VH: B1 VH
VL: B1 VL with G34K
notes: also called G34K
B26: 1E4-cIgGB with G34 to A substitution in VL (antibody, V domains shown)
VH: B1 VH
VL: B1 VL with G34A
notes: also called G34A
B27: mouse monoclonal antibody 1G10 (antibody, V domains shown)
VH: EVQLQQSGPELVKPGASVKISCKASGYTFTDYYMNWVKQSHGKSLEWIGDINPNNGDTSYNQKFKGKAPLTVDKSSSTAYMEVRSLTSEDSAVYFCARGGVLRYPYYYVMDYWGQGTSVTVSS
VL: DIVMTQAAPSVPVTPGESVSISCRSNKSLLHRNGNTYLYWFLQRPGQSPQLLIYRMSNLASGVPDRFSGSGSGTAFTLRISRVEAEDVGVYYCMQHLEFPFTFGGGTKLEIK
notes: Mouse monoclonal antibody from a hybridoma; also called hybridoma antibody 1G10
B28: mouse monoclonal antibody 1E4 (antibody, V domains shown)
VH: B1 VH
VL: DVVMTQNPLSLPVSLGDQASISCRSSQSLIYNNGNTYLHWYRQKPGQSPKLLIYKVSNRFSGVPDRFSGSGSGTDFTLKISRVEAEDLGVYFCSQSTHVPFTFGSGTKLEIK
notes: Mouse monoclonal antibody from a hybridoma; also called 1E4-mAb; hybridoma antibody 1E4

Changes are numbered by the printed parent chain. Names may count otherwise.

In the first experiment the target is T1, canine CD20 ECD2 peptide (canine).
T1 peptide: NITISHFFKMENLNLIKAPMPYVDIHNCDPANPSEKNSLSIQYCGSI
Nature of the experiment: ELISA on canine CD20 ECD2 peptide.
B1: the binding result is “binds”. On the same count and under the same terms, next, B2: “binds”; B3: “binds”; B4: “binds”. The same measure, in the same setting: the value for B5 was “binds”.

In the case of B6, the binding result was “binds”. The same measure, in the same setting: next, B7: “binds”; B8: “binds”. The same measure, in the same setting: next, B9: “binds”; B10: “binds”.

For B11, the binding result was “binds”. On the same count and under the same terms, the value for B12 was “binds”; that for B13 was “binds”; that for B14 was “binds”.

As for B15, the binding result is reported as “binds”. Same read-out and setting: the value for B16 was “binds”. The same measure, in the same setting: next, B17: “binds”. As to B18, the binding result is listed as “binds”.

Regarding B19, the binding result was “binds”. In the case of B20, the binding result was “binds”. On the same count and under the same terms, the value for B21 was “binds”. As to B22, the binding result is reported as “binds”.

For the next experiment, the target named is T1, canine CD20 ECD2 peptide. Briefly: ELISA on canine CD20 ECD2 peptide (FIG. 5). (In an ELISA, binding on a coated surface is turned into a signal by an enzyme label.)
Turning to B23, the binding result was “binds”.

In the case of B24, the binding result is reported as “binds”.

As to B25, the binding result is “binds”. The same measure, in the same setting: the value for B26 was “binds”.

In the next experiment the target is T2, canine CD20 ECD2-mFc fusion protein (canine).
T2 construct: also called cCD20 ECD2-mFc
T2 chain: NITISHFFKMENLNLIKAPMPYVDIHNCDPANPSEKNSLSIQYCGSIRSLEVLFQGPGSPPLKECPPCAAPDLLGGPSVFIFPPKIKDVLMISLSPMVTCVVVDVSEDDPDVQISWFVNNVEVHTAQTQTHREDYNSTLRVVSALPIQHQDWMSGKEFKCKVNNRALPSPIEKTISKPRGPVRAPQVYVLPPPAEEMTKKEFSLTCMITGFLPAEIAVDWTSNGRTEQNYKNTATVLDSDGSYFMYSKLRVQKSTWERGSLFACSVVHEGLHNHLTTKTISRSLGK
Nature of the experiment: ELISA, antigen coated at 200 ng/well, antibody 5 ug/ml. The procedure:
(§1) This strategy- enabled identification of the specific sequences in canine CD20 that each mAb binds. Binding was tested using a standard ELISA protocol. Briefly, recombinant canine CD20 ECD2-mFc fusion protein and human/canine hybrid variants thereof were diluted in PBS and bound to a 96-well microtiter plate at 200 ng/well by overnight incubation at 4° C. The plate was rinsed three times with PBST buffer, blocked with a solution of 3% BSA in PBS for one hour at 37° C., then rinsed once with PBST. Mouse monoclonal antibodies 1E4, 1G1, and 1G10 were diluted to a concentration of 5 μg/ml in PBS and 50 μl of this dilution was applied to the plate for 1 hour at room temperature. The plate was then rinsed three times with PBST, and Jackson Immunoresearch goat anti-mouse-IgG light chain-specific HRP conjugate (#115-035-174) diluted to 1:5000 in PBS (50 μL) was added to each well, and the plate was incubated for 45 min at room temperature. The plate was washed three times with PBST, then 100 μl of SureBlueTMB substrate (KPL #52-00-03) was added to each well and the plate was incubated for about 10 min at room temperature. The plate was read at 650 nm in a spectrophotometer.
Regarding B27, the binding result is on record as “binds”. For B28, the binding result was “binds”.

The next experiment has as its target T3, Hum-Can CD20 ECD2 V3 (mFc fusion) (human/canine hybrid).
T3 construct: Described as a hybrid version of the original immunogen CD20 ECD2-mFc
T3 chain: T2 chain with L39P, I41T, G45Y
The experiment is described as above. The procedure: as §1
As for B27, the binding result is “binds”. B28: the binding result is reported as “binds”.

A further experiment concerns the target T4, canine CD20 on canine B cells / B cell lymphoma cells (canine, UniProt Q3C2E2 1-297).
T4 construct: whole, on cells; Endogenous CD20 on canine cells
T4 sequence (looked up): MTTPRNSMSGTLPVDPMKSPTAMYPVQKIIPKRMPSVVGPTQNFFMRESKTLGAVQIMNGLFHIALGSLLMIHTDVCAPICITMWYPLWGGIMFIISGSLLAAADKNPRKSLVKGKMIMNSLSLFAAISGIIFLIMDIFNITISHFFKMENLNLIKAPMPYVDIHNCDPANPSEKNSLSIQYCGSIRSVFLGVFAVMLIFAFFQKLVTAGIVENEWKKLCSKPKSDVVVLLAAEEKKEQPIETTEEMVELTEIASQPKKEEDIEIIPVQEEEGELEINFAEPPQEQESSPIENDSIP
Nature of the experiment: FACS on canine B cell lymphoma cells expressing canine CD20. As for the experimental part:
The relative affinities of the mouse monoclonal antibodies 1E4, 1G1, and 1G10 for binding to canine CD20 was determined by fluorescent activated cell sorting (FACS) using canine B cell lymphoma cells, which express canine CD20.
Broadly, the Kd is a measure of binding affinity in units of concentration. The molecule B27 registered a Kd of 0.29 nM. The same measure, in the same setting: next, B28: 0.97 nM.
